Data on 1 substance can be found in patent publication US20110071283.

For this series, the system named is fibrinogen.

As to human thrombin, the “SDS-PAGE analysis of hydrolysis of fibrinogen (Aα-strand)” value is listed as “has a similar strength to human thrombin”.
